Experimental data taken from patent US20200230253A1.

B1: long-acting iduronate-2-sulfatase conjugate (protein, part only; not given: Immunoglobulin Fc and PEG linker, human, UniProt P22304 26-550, looked up, not shown: a dimerising Fc or GST)
chain: SETQANSTTDALNVLLIIVDDLRPSLGCYGDKLVRSPNIDQLASHSLLFQNAFAQQAVCAPSRVSFLTGRRPDTTRLYDFNSYWRVHAGNFSTIPQYFKENGYVTMSVGKVFHPGISSNHTDDSPYSWSFPPYHPSSEKYENTKTCRGPDGELHANLLCPVDVLDVPEGTLPDKQSTEQAIQLLEKMKTSASPFFLAVGYHKPHIPFRYPKEFQKLYPLENITLAPDPEVPDGLPPVAYNPWMDIRQREDVQALNISVPYGPIPVDFQRKIRQSYFASVSYLDTQVGRLLSALDDLQLANSTIIAFTSDHGWALGEHGEWAKYSNFDVATHVPLIFYVPGRTASLPEAGEKLFPYLDPFDSASQLMEPGRQSMDLVELVSLFPTLAGLAGLQVPPRCPVPSFHVELCREGKNLLKHFRFRDLEEDPYLPGNPRELIAYSQYPRPSDIPQWNSDKPSLKDIKIMGYSIRTIDYRYTVWVGFNPDEFLANFSDIHAGELYFVDSDPLQDHNMYNDSQGGDLFQLLMP
modifications: N-terminus linked through a 10 kDa polyethylene glycol linker (from ALD-PEG-ALD, reductive amination) to the N-terminal proline of one chain of the immunoglobulin Fc

Assays:
[1] = molecular target: mannose phosphate 6 receptor (M6PR) expressed on HepG2 cells (human); assay: cell-based or functional assay
[2] = molecular target: mannose phosphate 6 receptor (M6PR), immobilized on a CM5 chip; assay: SPR (BIACORE T200), M6PR immobilized on CM5 chip by amine coupling, analyte 200 nM to 12.5 nM in HBS-EP
[3] = molecular target: mannose phosphate 6 receptor (M6PR), immobilized on a CM5 chip; assay: SPR (BIACORE T200), M6PR immobilized on CM5 chip by amine coupling
[4] = molecular target: mannose phosphate 6 receptor (M6PR), immobilized on a CM5 chip; assay: SPR, M6PR immobilized; the reference itself
[5] = molecular target: mannose phosphate 6 receptor (M6PR), immobilized on a CM5 chip; assay: SPR, M6PR immobilized; relative to iduronate-2-sulfatase

| Molecule | intracellular absorption activity (Vmax), HepG2 cells, 24 h at 37 C, ELISA of cell content [1] | kon [2] [M⁻¹ s⁻¹] | Kd [3] [nM] | koff [3] [s⁻¹] | relative binding affinity from KD (% of iduronate-2-sulfatase) [4] [%] | relative ka (% of iduronate-2-sulfatase) [4] [%] | relative kd (% of iduronate-2-sulfatase) [4] [%] | intracellular absorption activity relative to iduronate-2-sulfatase [1] [%] | kon [3] [M⁻¹ s⁻¹] | relative binding affinity from KD (% of iduronate-2-sulfatase) [5] [%] | relative ka (% of iduronate-2-sulfatase) [5] [%] | relative kd (% of iduronate-2-sulfatase) [5] [%] |
| --- | --- | --- | --- | --- | --- | --- | --- | --- | --- | --- | --- | --- |
| iduronate-2-sulfatase (Elaprase manufactured by Shire) (from UniProt P22304 26-550) (enzyme) | 9.5 nM | 136000 | 29.1 | 0.00395 | 100 | 100 | 100 |  |  |  |  |  |
| B1 | 10.8 ng/mL |  | 33.1 | 0.00307 |  |  |  | 81.4 | 92000 | 88 | 67 | 78 |
